From IntAct's records for PubMed 10798620 come the findings set out here.

In assay [1] the target is gdir_arath GDI1 (UniProt Q9SFC6).
For assay [2] the target is unchanged. This is another data set of the same source.

gdir_arath GDI1, sequence (Q9SFC6 whole entry): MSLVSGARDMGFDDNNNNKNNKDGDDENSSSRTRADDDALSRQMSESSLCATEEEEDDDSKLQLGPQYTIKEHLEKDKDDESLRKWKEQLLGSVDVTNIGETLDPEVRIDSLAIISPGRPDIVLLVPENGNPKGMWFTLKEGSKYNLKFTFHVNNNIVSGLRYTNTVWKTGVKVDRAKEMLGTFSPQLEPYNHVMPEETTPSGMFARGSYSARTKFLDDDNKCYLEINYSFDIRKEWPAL
Rac-like GTP-binding protein ARAC5 (Arabidopsis thaliana (Mouse-ear cress)), Q38937 T20N, sequence (Q38937 whole entry T20N): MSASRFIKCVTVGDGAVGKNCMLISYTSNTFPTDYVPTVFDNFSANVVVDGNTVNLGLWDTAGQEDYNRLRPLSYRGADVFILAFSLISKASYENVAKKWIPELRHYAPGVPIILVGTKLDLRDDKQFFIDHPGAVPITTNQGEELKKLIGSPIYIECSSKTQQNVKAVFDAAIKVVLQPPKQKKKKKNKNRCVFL
Rac-like GTP-binding protein ARAC3 (Arabidopsis thaliana (Mouse-ear cress)), Q38912 T20N, sequence (Q38912 whole entry T20N): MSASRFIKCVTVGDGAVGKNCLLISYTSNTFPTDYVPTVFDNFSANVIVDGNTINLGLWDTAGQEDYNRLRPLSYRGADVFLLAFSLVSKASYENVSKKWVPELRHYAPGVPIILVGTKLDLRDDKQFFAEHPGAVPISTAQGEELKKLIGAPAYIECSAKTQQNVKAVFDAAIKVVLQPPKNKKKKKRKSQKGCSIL

As to “Rac-like GTP-binding protein ARAC3 (Arabidopsis thaliana (Mouse-ear cress)), Q38912 T20N”, the “effect of a mutation on the interaction” value in assay [1] is reported as “disrupting interaction”.
Take “Rac-like GTP-binding protein ARAC5 (Arabidopsis thaliana (Mouse-ear cress)), Q38937 T20N”: the “effect of a mutation on the interaction” value in assay [2] is on record as “disrupting interaction”.
